In patent US20220033438A1 (GENOIMMUNE THERAPEUTICS, published 2022):

Experiments:
HLA-A0201 on T2 cells [1] = molecular target: T1, HLA-A0201 on T2 cells (human); experiment: T2 cell affinity test, 100 uM peptide, flow cytometry; FI=(MFI sample-MFI background)/MFI background
T1 construct: MHC class I molecule on TAP-deficient T2 cells; also called HLA-A0201 antigen
Protocol: (§1) 2 duplicate wells per group were used. […] The cells were collected by centrifugation at 200 g for 5 minutes. […] The mean fluorescence intensity (MFI) was then detected and analyzed by flow cytometry (BD FACSJazz™) and its software, as shown in FIG. 1.

HLA-A0201 on T2 cells [2] = molecular target: T1, HLA-A0201 on T2 cells; experiment: T2 cell affinity test, 100 uM peptide overnight with human b2m, anti-HLA-A0201 FITC staining, flow cytometry
Protocol: as §1

Row | FI (fluorescence index) (HLA-A0201 on T2 cells [1]) | MFI (HLA-A0201 on T2 cells [2]) | Binder
1 | 1.89 | 648 | KLMGIVNKV [wild-type polypeptide KLMGIVNKV (SEQ ID NO: 6)]
2 | 2.09 | 692 | KMMGIVYKL (Synthetic 9-mer; also called mutated polypeptide) [KMMGIVYKL polypeptide (SEQ ID NO: 5)]
3 | 1.97 | 666 | KLMGIVYKV (Synthetic 9-mer made by solid phase synthesis; It is the fragment of the mutated (N136Y) Twist neighbor protein; also called mutated polypeptide) [KLMGIVYKV polypeptide (SEQ ID NO: 2)]
4 | 2.23 | 724 | KLMGIVYKL (Synthetic 9-mer; also called mutated polypeptide) [KLMGIVYKL polypeptide (SEQ ID NO: 4)]
